Source: patent US20170166655A1 (published 2017)
Numbering of substitutions follows the chain as printed. Numbers in names are those of the source. Read-outs that look alike come from different tables or passages of the source.

T1: human H131 FcγRIIa, extracellular region (human, UniProt P12318 34-217)
T1 chain: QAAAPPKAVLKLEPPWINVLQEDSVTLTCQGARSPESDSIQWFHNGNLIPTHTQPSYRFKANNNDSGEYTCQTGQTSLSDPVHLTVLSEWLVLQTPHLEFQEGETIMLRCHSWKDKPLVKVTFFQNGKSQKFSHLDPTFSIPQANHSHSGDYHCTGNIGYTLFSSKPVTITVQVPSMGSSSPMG

T2: human FcγRIIb, extracellular region (human, UniProt P31994 43-217)
T2 chain: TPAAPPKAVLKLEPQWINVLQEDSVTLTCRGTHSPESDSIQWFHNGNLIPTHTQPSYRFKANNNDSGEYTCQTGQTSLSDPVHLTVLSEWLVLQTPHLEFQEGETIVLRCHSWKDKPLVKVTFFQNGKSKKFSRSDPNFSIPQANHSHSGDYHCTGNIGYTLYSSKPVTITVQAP

T3: human FcγRI, extracellular region (human, UniProt P12314 16-292)
T3 chain: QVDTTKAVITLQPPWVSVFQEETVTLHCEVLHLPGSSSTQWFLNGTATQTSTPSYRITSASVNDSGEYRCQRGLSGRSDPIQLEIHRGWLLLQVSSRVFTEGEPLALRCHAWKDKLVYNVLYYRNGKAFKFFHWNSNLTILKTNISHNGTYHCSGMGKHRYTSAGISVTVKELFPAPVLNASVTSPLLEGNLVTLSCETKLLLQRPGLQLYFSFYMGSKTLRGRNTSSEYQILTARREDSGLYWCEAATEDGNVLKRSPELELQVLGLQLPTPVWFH

T4: human R131 FcγRIIa, extracellular region (human, UniProt P12318 34-217)
T4 chain: T1 chain with H134R

B1: IgG2_S239D/I332E (antibody)
chain: ASTKGPSVFPLAPCSRSTSESTAALGCLVKDYFPEPVTVSWNSGALTSGVHTFPAVLQSSGLYSLSSVVTVPSSNFGTQTYTCNVDHKPSNTKVDKTVERKCCVECPPCPAPPVAGPDVFLFPPKPKDTLMISRTPEVTCVVVDVSHEDPEVQFNWYVDGVEVHNAKTKPREEQFNSTFRVVSVLTVVHQDWLNGKEYKCKVSNKGLPAPEEKTISKTKGQPREPQVYTLPPSREEMTKNQVSLTCLVKGFYPSDIAVEWESNGQPENNYKTTPPMLDSDGSFFLYSKLTVDKSRWQQGNVFSCSVMHEALHNHYTQKSLSLSPGK
B2: IgG2_S239D/I332E/G327A (antibody)
chain: B1 chain with G206A
B3: WT IgG2 (antibody)
chain: B1 chain with D118S, E211I
B4: IgG2 WT (antibody)
chain: B1 chain with D118S, E211I

Tests used:
Experiment in all cases: SPR
[1] = molecular target: T1, human H131 FcγRIIa, extracellular region
[2] = molecular target: T2, human FcγRIIb, extracellular region
[3] = molecular target: human V158 FcγRIIIa, extracellular region (human, UniProt P08637 17-208)
[4] = molecular target: T3, human FcγRI, extracellular region
[5] = molecular target: T4, human R131 FcγRIIa, extracellular region
[6] = molecular target: human F158 FcγRIIIa, extracellular region (human, UniProt P08637 17-208)
[7] = molecular target: T1, human H131 FcγRIIa, extracellular region
[8] = molecular target: T4, human R131 FcγRIIa, extracellular region

human V158 FcγRIIIa, extracellular region, sequence (P08637 17-208 F176V): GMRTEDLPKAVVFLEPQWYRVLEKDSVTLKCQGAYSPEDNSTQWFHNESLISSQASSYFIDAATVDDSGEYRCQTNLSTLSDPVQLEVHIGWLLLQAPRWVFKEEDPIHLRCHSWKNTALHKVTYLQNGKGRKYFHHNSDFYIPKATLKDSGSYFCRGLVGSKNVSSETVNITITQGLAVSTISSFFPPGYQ
human F158 FcγRIIIa, extracellular region, sequence (P08637 17-208): as the sequence (P08637 17-208 F176V) above, with V160F counted along it

Binder | Kd [1] [nM] | Kd [2] [nM] | Kd [3] [nM] | Kd [4] [nM] | Kd [5] [nM] | Kd [6] [nM] | Kd [7] [nM] | Kd [8] [nM]
B1 | 160 | 682 | 30.3 | 24.2 | 128 | 81.7 | – | –
B2 | 122 | 232 | 19.4 | 13.2 | 161 | 36.3 | – | –
B3 | – | – | – | – | – | – | 525 | 4270
B4 | 525 | – | – | – | 4270 | – | – | –
